Laboratory results: patent US20210340208A1 (ANWITA BIOSCIENCES, published 2021)
Positions count from the first letter of the chain named. In names and notes the source's numbering stands. Values belong to the binder of their own block, whether it stands above or below them.

Tests used:
[1] = molecular target: T1, IL-2Rα, β, and γ chains on preactivated human CD3 T-cells (human, UniProt P01589 22-272; P14784 27-551; P31785 23-369); assay: cell-based or functional assay
T1 sequence (looked up) 1: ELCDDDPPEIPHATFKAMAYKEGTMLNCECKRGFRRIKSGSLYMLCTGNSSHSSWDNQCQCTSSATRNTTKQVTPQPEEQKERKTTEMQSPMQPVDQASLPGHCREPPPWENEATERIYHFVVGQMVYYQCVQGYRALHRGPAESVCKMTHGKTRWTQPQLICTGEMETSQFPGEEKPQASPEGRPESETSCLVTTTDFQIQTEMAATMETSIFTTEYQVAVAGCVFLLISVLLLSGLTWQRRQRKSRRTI
T1 sequence (looked up) 2: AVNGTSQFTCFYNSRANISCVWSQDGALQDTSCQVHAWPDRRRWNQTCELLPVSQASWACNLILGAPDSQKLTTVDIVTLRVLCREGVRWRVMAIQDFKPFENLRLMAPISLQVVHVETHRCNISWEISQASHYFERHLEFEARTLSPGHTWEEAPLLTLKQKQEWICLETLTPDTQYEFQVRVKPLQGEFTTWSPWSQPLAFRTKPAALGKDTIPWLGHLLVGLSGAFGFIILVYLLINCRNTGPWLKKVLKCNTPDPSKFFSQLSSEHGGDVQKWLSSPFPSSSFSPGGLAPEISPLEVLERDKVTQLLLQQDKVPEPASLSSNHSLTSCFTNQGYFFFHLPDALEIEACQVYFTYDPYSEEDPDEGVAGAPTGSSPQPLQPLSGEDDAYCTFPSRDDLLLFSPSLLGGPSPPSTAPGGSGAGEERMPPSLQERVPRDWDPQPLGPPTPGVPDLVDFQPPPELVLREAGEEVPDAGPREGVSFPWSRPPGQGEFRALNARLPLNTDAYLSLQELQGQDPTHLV
T1 sequence (looked up) 3: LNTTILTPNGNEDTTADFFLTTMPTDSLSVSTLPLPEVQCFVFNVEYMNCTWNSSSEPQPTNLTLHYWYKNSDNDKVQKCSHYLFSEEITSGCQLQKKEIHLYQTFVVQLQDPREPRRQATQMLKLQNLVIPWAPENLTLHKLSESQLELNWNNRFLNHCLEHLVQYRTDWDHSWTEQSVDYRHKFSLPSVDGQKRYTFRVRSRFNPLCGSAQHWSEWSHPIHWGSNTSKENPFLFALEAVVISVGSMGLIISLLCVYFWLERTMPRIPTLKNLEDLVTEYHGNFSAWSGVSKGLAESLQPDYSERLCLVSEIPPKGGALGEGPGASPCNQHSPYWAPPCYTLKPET

IL-2Rα-Fc fusion protein [2] = molecular target: T2, IL-2Rα-Fc fusion protein (human, UniProt P01589 22-240); assay: BLI (Octet RED96), IL-2Rα-Fc on AHC biosensor
T2 construct: also called human IL-2Rα (CD25); CD25; not shown: Fc part and any linker are not described; captured on an anti-human IgG Fc sensor
T2 sequence: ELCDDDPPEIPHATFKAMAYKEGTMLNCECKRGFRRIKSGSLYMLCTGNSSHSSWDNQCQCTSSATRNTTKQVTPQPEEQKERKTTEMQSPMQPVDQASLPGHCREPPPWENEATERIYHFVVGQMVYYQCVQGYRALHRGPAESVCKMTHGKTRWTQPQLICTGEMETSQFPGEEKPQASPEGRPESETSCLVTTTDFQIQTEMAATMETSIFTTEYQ
Method: (§1) OCTET® RED96 was used to characterize the interactions of a wild-type hIL-2 and hIL-2 muteins with a human IL-2Rα (CD25). Briefly, an IL-2Rα-Fc fusion protein was loaded onto an anti-human IgG Fc capture (AHC) biosensor. The biosensor was then dipped into a solution containing a wild-type hIL-2 (WT IL-2) or an IL-2 mutein at various concentrations. Primary experimental data was analyzed with global fitting to determine a binding affinity (Kd).

IL-2Rα-Fc fusion protein [3] = molecular target: T2, IL-2Rα-Fc fusion protein; assay: BLI (Octet RED96), IL-2Rα-Fc on AHC biosensor, global fit
Method: as §1

EC50 of STAT5 phosphorylation (phospho-STAT5 Tyr694 HTRF) [1]: 0.92 nM
binding result (IL-2Rα-Fc fusion protein [2]): no binding
B1: hIL-2-anti-HSA A37 (ligand)
chain: APTSSSTKKTQLQLEHLLLDLQMILNGINNYENPKLTRMLTAKFYMPKKATELKHLQCLEEELKPLEEVLNLAQSKNFHLRPRDLISNINVIVLELKGSETTFMCEYADETATIVEFLNRWITFSQSIISTLTGSGGSGGSGGSGEVQLVESGGGLVQPGGSLRLSCAASGSTWSINTLAWYRQAPGKQRDLVARISSGGSTYYADSVKGRFTISRDNSKNTLYLQMNSLRAEDTAVYYCYAQSTWYPPSWGQGTLVTVSS
notes: fused to anti-HSA VHH; also called IL2 mutein (K32E, F42A, C125S)

Kd (IL-2Rα-Fc fusion protein [3]): > 15 nM
B2: hIL-2-anti-HSA A47 (ligand)
chain: B1 chain with K35C, A42F, L72C
notes: fused to anti-HSA VHH; also called hIL-2 mutein (K32E, K35C, L72C, C125S)
